The text below walks through data of paper PMC7615196, “PIM1 controls GBP1 activity to limit self-damage and to guard against pathogen infection” (Science (New York, N.Y.), 2023).

In data set [1] the target is T1, in vitro phosphorylated recombinant GBP1 (human, UniProt P32455 1-592, phosphoserine at 156 (GBP1pS156); Ser569 and Thr590 also identified as sites phosphorylated by PIM1 in vitro).
T1 chain: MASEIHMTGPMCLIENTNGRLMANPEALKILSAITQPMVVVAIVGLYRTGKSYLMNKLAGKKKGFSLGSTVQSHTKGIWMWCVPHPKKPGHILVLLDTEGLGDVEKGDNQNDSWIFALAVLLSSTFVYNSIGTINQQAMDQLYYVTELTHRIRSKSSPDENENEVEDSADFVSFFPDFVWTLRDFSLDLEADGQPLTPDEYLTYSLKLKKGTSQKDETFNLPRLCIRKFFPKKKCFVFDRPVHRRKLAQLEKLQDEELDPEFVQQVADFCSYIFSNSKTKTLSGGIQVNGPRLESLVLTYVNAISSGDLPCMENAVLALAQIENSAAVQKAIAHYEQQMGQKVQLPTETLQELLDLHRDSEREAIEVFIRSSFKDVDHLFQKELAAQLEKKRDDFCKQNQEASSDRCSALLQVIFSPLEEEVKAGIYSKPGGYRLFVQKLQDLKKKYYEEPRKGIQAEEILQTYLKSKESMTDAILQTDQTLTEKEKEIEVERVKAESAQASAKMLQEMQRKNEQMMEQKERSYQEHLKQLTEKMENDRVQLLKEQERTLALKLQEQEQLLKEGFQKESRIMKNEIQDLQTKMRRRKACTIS
Description: ITC; GBP1 phosphorylated at S156. A general note: Isothermal titration calorimetry measures the heat released or taken up as one component is titrated into another.

Data set [2] deals with T1, in vitro phosphorylated recombinant GBP1.
Data set [3] deals with the molecule itself. Briefly: cryo-EM structure; single particle cryo-EM of the SEC-purified phospho-GBP1:14-3-3σ complex; crystal structures docked as rigid bodies.

B1: recombinant 14-3-3σ (natural protein, human, UniProt P31947 1-248, looked up)
chain: MERASLIQKAKLAEQAERYEDMAAFMKGAVEKGEELSCEERNLLSVAYKNVVGGQRAAWRVLSSIEQKSNEEGSEEKGPEVREYREKVETELQGVCDTVLGLLDSHLIKEAGDAESRVFYLKMKGDYYRYLAEVATGDDKKRIIDSARSAYQEAMDISKKEMPPTNPIRLGLALNFSVFHYEIANSPEEAISLAKTTFDEAMADLHTLSEDSYKDSTLIMQLLRDNLTLWTADNAGEEGGEAPQEPQS
notes: 14-3-3σ (stratifin), ORF from cDNA of IFNγ-primed THP-1 WT cells via pLenti-Tet-14-3-3σ into pET15d-6xHis-3C; homodimer in the cryo-EM map; also called SFN; YWHAS; source: E. coli BL21, purified (Ni-NTA, 3C cleavage, reverse Ni-IMAC, SEC); not shown: His6, N-terminal, cleaved
For orientation: Kd means the free concentration of one partner at which half of the binding sites on the other are occupied at equilibrium, for simple one-to-one binding. By stoichiometry N is commonly meant the number of molecules, sites or subunits per partner or assembly. B1: the Kd in data set [1] is 400 nM. Besides, the GTPase activity assay (rate of GTP hydrolysis, free phosphate by Malachite Green), 2 μM purified GBP1:14-3-3σ complex compared to free GBP1 in data set [2] was > 8 fold. For the same molecule, the “stoichiometry N” value in data set [3] turned out to be 2.
